Source: patent publication US10087225B2, “Formulation of MK2 inhibitor peptides” (MOERAE MATRIX, INC., priority 2015, dated 2018)

Columns and labels:
Experiment in all cases: Kinase Profiling Assay
Format in all cases: biochemical
Conditions in all cases: for % activity: 100 μM
[1] = target: Tie2(Y897S)(h) (Homo sapiens, UniProt Q02763, Y897S)
[2] = target: SAPK2a(T106M)(h) (Homo sapiens, UniProt Q16539, T106M)
[3] = target: T1, GCK(h) (Homo sapiens, UniProt Q12851)
T1 sequence (Q12851 1-820): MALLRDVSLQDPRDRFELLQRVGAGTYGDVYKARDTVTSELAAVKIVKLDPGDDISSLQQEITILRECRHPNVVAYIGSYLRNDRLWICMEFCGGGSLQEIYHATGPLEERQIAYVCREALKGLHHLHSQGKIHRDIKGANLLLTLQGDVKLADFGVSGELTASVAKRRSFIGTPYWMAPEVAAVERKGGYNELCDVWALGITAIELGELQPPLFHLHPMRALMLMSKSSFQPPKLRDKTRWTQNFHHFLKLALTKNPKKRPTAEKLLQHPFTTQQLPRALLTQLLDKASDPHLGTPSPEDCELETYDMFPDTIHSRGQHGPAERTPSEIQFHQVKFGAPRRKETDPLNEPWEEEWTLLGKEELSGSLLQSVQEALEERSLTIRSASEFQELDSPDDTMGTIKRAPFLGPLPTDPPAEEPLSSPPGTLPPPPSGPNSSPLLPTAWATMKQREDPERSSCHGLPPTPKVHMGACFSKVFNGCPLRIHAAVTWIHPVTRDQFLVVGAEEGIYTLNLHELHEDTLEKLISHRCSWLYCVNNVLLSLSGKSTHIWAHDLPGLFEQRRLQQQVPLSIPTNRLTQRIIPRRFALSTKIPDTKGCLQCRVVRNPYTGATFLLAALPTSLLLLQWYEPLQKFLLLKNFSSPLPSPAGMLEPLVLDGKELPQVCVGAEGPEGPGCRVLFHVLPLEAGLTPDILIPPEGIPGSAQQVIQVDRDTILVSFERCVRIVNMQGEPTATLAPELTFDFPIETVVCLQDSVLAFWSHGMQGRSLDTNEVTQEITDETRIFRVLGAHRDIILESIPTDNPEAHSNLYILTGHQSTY

[4] = target: PTK5(h) (Homo sapiens, UniProt P42685)
PTK5(h), sequence (P42685 whole entry): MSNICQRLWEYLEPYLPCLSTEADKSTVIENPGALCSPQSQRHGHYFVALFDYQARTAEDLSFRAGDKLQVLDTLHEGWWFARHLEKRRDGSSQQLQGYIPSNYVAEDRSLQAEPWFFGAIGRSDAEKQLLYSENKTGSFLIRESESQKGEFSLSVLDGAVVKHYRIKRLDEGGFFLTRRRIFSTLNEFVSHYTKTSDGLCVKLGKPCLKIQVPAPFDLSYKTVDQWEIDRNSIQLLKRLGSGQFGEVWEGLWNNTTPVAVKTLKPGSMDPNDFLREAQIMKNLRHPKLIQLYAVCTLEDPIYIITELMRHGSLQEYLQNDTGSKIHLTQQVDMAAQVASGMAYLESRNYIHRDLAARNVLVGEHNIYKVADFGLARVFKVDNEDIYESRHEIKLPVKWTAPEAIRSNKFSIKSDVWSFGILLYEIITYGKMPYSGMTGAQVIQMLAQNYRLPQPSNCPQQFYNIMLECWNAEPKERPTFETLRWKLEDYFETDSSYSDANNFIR

[5] = target: T2, Mer(h) (Homo sapiens, UniProt Q12866)
T2 sequence (Q12866 21-999): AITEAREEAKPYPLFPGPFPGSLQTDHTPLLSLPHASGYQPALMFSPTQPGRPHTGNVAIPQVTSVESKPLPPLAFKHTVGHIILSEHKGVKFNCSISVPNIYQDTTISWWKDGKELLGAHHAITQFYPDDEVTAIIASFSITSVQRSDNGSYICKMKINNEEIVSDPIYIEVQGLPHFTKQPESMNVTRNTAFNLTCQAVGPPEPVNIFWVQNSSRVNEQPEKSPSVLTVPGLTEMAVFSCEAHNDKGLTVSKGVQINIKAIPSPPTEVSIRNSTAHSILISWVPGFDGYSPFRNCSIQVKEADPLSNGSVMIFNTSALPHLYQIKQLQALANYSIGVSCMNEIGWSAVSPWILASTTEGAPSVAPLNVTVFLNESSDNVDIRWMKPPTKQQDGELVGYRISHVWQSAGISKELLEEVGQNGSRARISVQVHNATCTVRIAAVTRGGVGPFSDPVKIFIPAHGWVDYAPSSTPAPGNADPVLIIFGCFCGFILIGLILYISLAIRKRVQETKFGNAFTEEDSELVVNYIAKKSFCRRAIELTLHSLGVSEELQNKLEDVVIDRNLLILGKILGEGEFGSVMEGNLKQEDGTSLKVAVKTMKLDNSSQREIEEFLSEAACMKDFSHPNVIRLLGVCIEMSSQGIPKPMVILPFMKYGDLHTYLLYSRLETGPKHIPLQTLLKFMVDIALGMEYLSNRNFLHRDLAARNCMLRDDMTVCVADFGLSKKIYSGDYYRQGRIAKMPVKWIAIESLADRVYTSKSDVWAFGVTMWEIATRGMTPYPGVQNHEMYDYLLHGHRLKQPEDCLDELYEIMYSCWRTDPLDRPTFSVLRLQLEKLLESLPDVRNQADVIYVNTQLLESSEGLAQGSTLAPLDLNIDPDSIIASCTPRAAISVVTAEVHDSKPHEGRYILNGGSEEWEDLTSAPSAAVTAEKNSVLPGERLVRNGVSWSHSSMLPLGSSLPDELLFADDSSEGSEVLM

[6] = target: T3, PKG1β(h) (Homo sapiens, UniProt Q13976)
T3 sequence (Q13976 1-686 isoform Q13976-2): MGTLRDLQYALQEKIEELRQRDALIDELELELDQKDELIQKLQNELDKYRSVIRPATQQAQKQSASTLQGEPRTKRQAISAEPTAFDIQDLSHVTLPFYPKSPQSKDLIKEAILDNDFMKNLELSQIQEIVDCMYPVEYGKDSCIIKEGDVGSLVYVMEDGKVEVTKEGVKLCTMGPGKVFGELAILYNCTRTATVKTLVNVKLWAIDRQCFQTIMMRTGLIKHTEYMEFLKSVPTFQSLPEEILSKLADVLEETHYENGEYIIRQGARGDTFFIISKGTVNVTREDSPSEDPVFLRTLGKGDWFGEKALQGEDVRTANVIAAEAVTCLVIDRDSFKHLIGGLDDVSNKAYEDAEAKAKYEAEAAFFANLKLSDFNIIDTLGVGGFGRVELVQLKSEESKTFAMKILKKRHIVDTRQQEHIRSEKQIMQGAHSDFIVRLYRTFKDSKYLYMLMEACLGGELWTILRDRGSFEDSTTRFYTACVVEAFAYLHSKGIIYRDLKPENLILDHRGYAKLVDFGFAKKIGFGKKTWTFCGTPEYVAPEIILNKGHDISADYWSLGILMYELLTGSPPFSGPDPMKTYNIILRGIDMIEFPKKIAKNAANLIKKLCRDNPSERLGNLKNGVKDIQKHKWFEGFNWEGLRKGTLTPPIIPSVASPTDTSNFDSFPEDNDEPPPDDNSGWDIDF

[7] = target: PRK2(h) (Homo sapiens, UniProt Q16513)
PRK2(h), sequence (Q16513 whole entry): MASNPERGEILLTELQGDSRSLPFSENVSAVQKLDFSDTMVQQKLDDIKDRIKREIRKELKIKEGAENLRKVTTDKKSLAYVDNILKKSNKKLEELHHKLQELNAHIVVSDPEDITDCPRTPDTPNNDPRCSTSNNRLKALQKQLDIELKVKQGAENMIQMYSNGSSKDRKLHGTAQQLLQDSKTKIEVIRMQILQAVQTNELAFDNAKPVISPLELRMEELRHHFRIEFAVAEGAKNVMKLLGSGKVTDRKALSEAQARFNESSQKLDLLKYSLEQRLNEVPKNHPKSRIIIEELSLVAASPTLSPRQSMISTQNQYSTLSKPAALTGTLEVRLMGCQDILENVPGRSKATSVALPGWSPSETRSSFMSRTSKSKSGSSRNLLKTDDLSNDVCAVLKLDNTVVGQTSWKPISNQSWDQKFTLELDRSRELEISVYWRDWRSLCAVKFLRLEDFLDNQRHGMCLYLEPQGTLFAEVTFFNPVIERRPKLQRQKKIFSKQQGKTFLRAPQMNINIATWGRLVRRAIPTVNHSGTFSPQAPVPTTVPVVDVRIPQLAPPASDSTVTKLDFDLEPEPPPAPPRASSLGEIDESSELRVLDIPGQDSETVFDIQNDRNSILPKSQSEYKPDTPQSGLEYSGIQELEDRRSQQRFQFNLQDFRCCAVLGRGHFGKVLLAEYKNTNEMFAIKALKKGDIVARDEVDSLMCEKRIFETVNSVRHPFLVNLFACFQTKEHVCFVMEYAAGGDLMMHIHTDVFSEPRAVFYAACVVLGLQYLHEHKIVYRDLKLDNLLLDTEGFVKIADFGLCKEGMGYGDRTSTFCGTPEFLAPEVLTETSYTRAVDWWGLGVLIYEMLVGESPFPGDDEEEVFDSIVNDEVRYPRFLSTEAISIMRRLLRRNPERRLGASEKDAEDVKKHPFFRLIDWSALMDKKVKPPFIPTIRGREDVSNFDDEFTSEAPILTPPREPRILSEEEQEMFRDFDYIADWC

SAPK2a(T106M)(h), sequence (Q16539 whole entry T106M): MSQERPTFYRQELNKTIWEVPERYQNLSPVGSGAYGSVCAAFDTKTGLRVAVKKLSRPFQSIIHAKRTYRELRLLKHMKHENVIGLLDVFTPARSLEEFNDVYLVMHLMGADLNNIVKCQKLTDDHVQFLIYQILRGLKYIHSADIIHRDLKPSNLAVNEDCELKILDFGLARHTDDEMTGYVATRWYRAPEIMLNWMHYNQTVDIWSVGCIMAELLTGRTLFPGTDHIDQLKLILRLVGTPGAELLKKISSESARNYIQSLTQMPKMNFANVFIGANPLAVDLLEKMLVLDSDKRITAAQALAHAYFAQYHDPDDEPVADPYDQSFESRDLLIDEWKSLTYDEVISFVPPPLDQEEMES
Tie2(Y897S)(h), sequence (Q02763 23-1124 Y897S): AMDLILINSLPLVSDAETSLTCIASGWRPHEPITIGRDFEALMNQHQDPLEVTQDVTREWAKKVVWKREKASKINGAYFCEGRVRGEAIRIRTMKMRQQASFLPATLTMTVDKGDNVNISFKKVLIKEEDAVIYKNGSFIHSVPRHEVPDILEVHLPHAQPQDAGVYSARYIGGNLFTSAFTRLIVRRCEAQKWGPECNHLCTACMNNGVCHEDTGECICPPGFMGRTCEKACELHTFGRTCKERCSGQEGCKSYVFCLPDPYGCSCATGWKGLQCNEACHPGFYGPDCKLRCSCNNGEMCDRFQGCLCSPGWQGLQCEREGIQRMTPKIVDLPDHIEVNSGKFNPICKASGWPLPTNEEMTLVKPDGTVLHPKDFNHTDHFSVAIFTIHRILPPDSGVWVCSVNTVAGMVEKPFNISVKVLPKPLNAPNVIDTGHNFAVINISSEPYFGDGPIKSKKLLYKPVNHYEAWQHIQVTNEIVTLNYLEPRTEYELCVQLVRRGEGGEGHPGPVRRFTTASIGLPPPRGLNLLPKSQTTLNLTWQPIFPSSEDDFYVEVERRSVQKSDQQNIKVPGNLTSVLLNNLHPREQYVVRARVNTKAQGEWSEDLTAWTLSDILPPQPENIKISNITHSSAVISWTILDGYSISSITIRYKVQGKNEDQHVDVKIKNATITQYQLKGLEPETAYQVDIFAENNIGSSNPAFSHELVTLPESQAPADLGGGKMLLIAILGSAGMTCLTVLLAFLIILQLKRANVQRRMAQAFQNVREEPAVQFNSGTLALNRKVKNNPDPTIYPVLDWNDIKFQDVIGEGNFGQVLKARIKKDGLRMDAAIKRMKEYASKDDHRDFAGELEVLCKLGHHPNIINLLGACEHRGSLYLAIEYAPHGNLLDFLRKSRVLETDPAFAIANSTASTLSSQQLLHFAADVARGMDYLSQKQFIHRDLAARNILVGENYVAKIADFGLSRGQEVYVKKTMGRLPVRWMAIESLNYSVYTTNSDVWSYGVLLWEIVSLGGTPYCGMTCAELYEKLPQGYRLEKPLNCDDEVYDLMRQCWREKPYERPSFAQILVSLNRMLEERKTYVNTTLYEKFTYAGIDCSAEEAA

| Substance | activity at 100 µM [1] [%] | activity at 100 µM [2] [%] | activity at 100 µM [3] [%] | activity at 100 µM [4] [%] | activity at 100 µM [5] [%] | activity at 100 µM [6] [%] | activity at 100 µM [7] [%] | % activity [1] [%] | % activity [2] [%] | % activity [3] [%] | % activity [4] [%] | % activity [5] [%] | % activity [6] [%] | % activity [7] [%] |
| --- | --- | --- | --- | --- | --- | --- | --- | --- | --- | --- | --- | --- | --- | --- |
| H-YARAAARQARAKALARQLGVAA-OH [MMI-0100] | 99 | 101 | 98 | 135 | 47 | 71 | 72 |  |  |  |  |  |  |  |
| HRRIKAWLKKIKALARQLGVAA (Mammalian) [MMI-0500] |  |  |  |  |  |  |  | 80 | 32 | 30 | 96 | 17 | 24 | 7 |
| YARAAARQARAKALNRQLGVA (Mammalian) [MMI-0200] |  |  |  |  |  |  |  | 85 | 100 | 99 | 108 | 90 | 57 | 74 |
